Source: patent US20100130424A1 (Janssen / Centocor, published 2010)
No end group written: not given here. *: point of attachment. Succinimide(1-Et,3-yl) = CCN1C(=O)CC(*)C1=O

T1: human CRH receptor type 2 (human, UniProt Q13324 1-411)
T1 sequence (looked up): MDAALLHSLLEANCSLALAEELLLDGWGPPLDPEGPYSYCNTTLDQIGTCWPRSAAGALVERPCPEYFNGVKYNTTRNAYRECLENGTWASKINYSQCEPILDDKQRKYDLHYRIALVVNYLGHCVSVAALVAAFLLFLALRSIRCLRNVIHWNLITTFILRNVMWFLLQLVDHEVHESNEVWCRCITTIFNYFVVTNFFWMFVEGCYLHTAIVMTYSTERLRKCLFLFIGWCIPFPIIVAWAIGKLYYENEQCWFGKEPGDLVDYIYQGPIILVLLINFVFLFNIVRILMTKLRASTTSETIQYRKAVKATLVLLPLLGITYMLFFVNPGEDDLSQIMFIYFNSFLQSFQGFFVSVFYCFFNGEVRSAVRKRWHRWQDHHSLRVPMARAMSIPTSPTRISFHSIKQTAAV

B1: Cys-variant of stresscopin peptide with N-Ethylsuccinimide (NES) reactive group, SEQ ID NO: 47 (peptide)
peptide: TKFTLSLDVPTNIMNLLFNIAKAKNLRC(Succinimide(1-Et,3-yl))QAAANAHLMAQI-NH2
modifications: N-terminus assumed
SMILES: CC[C@H](C)[C@H](NC(=O)[C@H](CCC(N)=O)NC(=O)[C@H](C)NC(=O)[C@H](CCSC)NC(=O)[C@H](CC(C)C)NC(=O)[C@H](Cc1c[nH]cn1)NC(=O)[C@H](C)NC(=O)[C@H](CC(N)=O)NC(=O)[C@H](C)NC(=O)[C@H](C)NC(=O)[C@H](C)NC(=O)[C@H](CCC(N)=O)NC(=O)[C@H](CSC1CC(=O)N(CC)C1=O)NC(=O)[C@H](CCCNC(=N)N)NC(=O)[C@H](CC(C)C)NC(=O)[C@H](CC(N)=O)NC(=O)[C@H](CCCCN)NC(=O)[C@H](C)NC(=O)[C@H](CCCCN)NC(=O)[C@H](C)NC(=O)[C@@H](NC(=O)[C@H](CC(N)=O)NC(=O)[C@H](Cc1ccccc1)NC(=O)[C@H](CC(C)C)NC(=O)[C@H](CC(C)C)NC(=O)[C@H](CC(N)=O)NC(=O)[C@H](CCSC)NC(=O)[C@@H](NC(=O)[C@H](CC(N)=O)NC(=O)[C@@H](NC(=O)[C@@H]1CCCN1C(=O)[C@@H](NC(=O)[C@H](CC(=O)O)NC(=O)[C@H](CC(C)C)NC(=O)[C@H](CO)NC(=O)[C@H](CC(C)C)NC(=O)[C@@H](NC(=O)[C@H](Cc1ccccc1)NC(=O)[C@H](CCCCN)NC(=O)[C@@H](N)[C@@H](C)O)[C@@H](C)O)C(C)C)[C@@H](C)O)[C@@H](C)CC)[C@@H](C)CC)C(N)=O
B2: Cys-variant of stresscopin peptide with N-Ethylsuccinimide (NES) reactive group, SEQ ID NO: 48 (peptide)
peptide: TKFTLSLDVPTNIMNLLFNIAKAKNC(Succinimide(1-Et,3-yl))RAQAAANAHLMAQI-NH2
modifications: N-terminus assumed
SMILES: CC[C@H](C)[C@H](NC(=O)[C@H](CCC(N)=O)NC(=O)[C@H](C)NC(=O)[C@H](CCSC)NC(=O)[C@H](CC(C)C)NC(=O)[C@H](Cc1c[nH]cn1)NC(=O)[C@H](C)NC(=O)[C@H](CC(N)=O)NC(=O)[C@H](C)NC(=O)[C@H](C)NC(=O)[C@H](C)NC(=O)[C@H](CCC(N)=O)NC(=O)[C@H](C)NC(=O)[C@H](CCCNC(=N)N)NC(=O)[C@H](CSC1CC(=O)N(CC)C1=O)NC(=O)[C@H](CC(N)=O)NC(=O)[C@H](CCCCN)NC(=O)[C@H](C)NC(=O)[C@H](CCCCN)NC(=O)[C@H](C)NC(=O)[C@@H](NC(=O)[C@H](CC(N)=O)NC(=O)[C@H](Cc1ccccc1)NC(=O)[C@H](CC(C)C)NC(=O)[C@H](CC(C)C)NC(=O)[C@H](CC(N)=O)NC(=O)[C@H](CCSC)NC(=O)[C@@H](NC(=O)[C@H](CC(N)=O)NC(=O)[C@@H](NC(=O)[C@@H]1CCCN1C(=O)[C@@H](NC(=O)[C@H](CC(=O)O)NC(=O)[C@H](CC(C)C)NC(=O)[C@H](CO)NC(=O)[C@H](CC(C)C)NC(=O)[C@@H](NC(=O)[C@H](Cc1ccccc1)NC(=O)[C@H](CCCCN)NC(=O)[C@@H](N)[C@@H](C)O)[C@@H](C)O)C(C)C)[C@@H](C)O)[C@@H](C)CC)[C@@H](C)CC)C(N)=O

Target: T1, human CRH receptor type 2
Test: cell-based or functional assay

Binder | Log DR against h-SCP, cAMP | pA50, cAMP
B1 | -0.03 log10 ratio | 9.5 -log M
B2 | 0.03 log10 ratio | 9.44 -log M
TKFTLSLDVPTNIMNLLFNIAKAKNLRCQAAANAHLMAQI (NES-PEG MW80000, branched, on Cys 28; C-terminal amide) [Pegylated Cys-variant CRHR2 peptide agonist (NES-PEG MW80000 & BRANCHED), SEQ ID NO: 101] | 1.9 log10 ratio | 7.84 -log M
